Assay results published in paper doi:10.1101/2020.06.19.161133, “Structure of the yeast Nup84-Nup133 complex details flexibility and reveals universal conservation of the membrane anchoring ALPS motif” (bioRxiv, 2020).

Key:
Settings in all cases: both partners purified
[1] = target: T1, Nup133 N-terminal domain (Nup133NTD, residues 55-481) (S. cerevisiae, UniProt P36161); experiment: crystal structure; Nup133NTD-VHH-SAN4, 2.1 Å, molecular replacement; crystals at 18 °C, PEG 3,350, ammonium sulfate, Bis-Tris/HCl pH 5.5
T1 construct: Nup133, S. cerevisiae, N-terminal beta-propeller, residues 55-481; The tag is 3C-cleavable; also called scNup133NTD; WT-Nup133NTD; source: E. coli LOBSTR-RIL(DE3), purified (Ni Sepharose, Superdex 75)

[2] = target: T2, Nup84 (full-length, S. cerevisiae) (S. cerevisiae, UniProt P52891); experiment: crystal structure; Nup84-Nup133CTD-VHH-SAN8, 6.4 Å, SAD with a polyoxotungstate derivative; crystals at 18 °C, PEG 8,000, ethylene glycol, imidazole/MES pH 6.5
T2 construct: Nup84, S. cerevisiae, full length; The tag is 3C-cleavable; also called scNup84

[3] = target: T3, Nup84-Nup133CTD heterodimeric complex (Saccharomyces cerevisiae (strain ATCC …, UniProt P52891;P36161)); experiment: as above
T3 construct: Nup84, S. cerevisiae, full length; source: E. coli LOBSTR-RIL(DE3), co-expressed from a bicistronic vector, purified (Ni Sepharose, SP Sepharose, Superdex 200)

[4] = target: T2, Nup84 (full-length, S. cerevisiae); experiment: crystal structure; Nup84-Nup133CTD with VHH-SAN8 and VHH-SAN9, 7.4 Å; same crystal form and conditions as the singly bound complex
[5] = target: T3, Nup84-Nup133CTD heterodimeric complex; experiment: as above
[6] = target: T1, Nup133 N-terminal domain (Nup133NTD, …); experiment: crystal structure; Nup133NTD-VHH-SAN5, 2.8 Å, molecular replacement; six copies in the asymmetric unit; crystals at 18 °C, PEG MME 2,000, potassium chloride, Tris/HCl pH 8

T2 sequence (P52891 whole entry): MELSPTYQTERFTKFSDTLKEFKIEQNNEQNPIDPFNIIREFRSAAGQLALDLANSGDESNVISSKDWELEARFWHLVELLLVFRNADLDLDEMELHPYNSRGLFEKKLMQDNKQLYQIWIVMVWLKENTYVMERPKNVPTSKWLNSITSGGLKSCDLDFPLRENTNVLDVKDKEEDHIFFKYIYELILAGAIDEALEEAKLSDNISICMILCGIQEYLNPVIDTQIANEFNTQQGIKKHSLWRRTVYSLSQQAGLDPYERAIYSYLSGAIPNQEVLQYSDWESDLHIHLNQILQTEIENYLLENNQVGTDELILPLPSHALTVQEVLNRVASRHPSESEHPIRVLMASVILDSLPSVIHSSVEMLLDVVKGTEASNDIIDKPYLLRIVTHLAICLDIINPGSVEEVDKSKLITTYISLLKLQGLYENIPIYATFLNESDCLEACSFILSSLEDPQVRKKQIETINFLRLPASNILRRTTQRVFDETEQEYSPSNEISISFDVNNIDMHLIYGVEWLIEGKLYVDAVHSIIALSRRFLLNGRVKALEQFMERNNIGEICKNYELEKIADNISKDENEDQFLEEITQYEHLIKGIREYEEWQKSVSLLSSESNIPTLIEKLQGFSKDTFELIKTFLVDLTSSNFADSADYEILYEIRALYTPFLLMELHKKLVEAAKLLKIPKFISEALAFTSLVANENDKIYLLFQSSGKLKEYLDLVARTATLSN
T3 sequence (P52891 whole entry, chain 1 of 2): as the sequence (P52891 whole entry) above
T3 sequence (P36161 521-1157, chain 2 of 2): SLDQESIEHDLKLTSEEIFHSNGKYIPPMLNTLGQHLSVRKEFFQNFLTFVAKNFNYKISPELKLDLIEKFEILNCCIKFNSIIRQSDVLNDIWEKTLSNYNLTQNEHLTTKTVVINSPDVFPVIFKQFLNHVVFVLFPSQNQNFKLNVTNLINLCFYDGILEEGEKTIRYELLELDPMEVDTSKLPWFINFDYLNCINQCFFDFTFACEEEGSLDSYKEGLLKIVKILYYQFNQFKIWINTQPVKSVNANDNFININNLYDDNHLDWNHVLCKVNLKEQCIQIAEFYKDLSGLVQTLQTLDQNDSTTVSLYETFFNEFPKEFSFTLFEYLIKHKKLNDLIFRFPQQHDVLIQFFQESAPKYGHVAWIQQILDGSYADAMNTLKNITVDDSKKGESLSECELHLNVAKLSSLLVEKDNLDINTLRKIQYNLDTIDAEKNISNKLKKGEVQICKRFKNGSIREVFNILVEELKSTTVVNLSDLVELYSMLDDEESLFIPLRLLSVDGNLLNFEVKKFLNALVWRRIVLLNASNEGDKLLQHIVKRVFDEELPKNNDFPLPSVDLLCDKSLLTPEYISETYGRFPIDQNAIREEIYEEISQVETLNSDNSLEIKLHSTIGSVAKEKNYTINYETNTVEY
T1 sequence (P36161 55-481): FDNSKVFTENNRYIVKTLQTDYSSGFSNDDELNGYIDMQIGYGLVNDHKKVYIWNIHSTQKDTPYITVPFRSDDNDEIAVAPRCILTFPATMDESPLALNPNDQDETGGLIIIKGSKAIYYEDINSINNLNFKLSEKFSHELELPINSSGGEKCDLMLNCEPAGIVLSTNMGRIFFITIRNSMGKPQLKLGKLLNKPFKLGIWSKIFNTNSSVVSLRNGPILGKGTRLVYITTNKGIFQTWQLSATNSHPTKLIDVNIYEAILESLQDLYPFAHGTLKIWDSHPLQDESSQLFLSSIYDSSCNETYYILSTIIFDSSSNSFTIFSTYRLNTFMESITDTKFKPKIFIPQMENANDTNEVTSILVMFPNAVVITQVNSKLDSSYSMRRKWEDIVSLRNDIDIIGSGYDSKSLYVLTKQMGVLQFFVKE

B1: VHH-SAN4 (VHH)
VHH: QLQLVESGGGSVQAGGSLTLSCTASESISKRIHGIGWFRQRRGEQREEIAYITTGGRPNLGDSVKDRFTISRDKSNGTVYLQMNSLKPEDTAVYYCHGRGRWWGTEGRLDYWGQGTQVTVSS
notes: structure deposited as PDB 6X05 (2.1 Å, nanobody chain); Selected by phage display from an alpaca immunised with the full-length Y complex, panned against Nup133NTD; also called nanobody VHH-SAN4; source: E. coli, purified (Ni Sepharose, tag cut with SEN-p protease, Superdex 75); not shown: 14xHis bdSUMO, N-terminal, cleaved
binding result [1]: binds

B2: VHH-SAN8 (VHH)
VHH: QLQLVETGGGLVQAGGSLRLSCVASGRTFTSYAMGWFRQAPGKEREFVAAISRLASGTDYADSVKGRFTISRNNDKNTVYLQMNNLIPEDTAVYYCAALQALRFSLPIAMATMKNGRADSWGQGTQVTVSS
notes: structure deposited as PDB 6X02 and 6X03 (the model is a generic nanobody without CDRs, PDB 1BZQ, placed as a rigid body); Selected by phage display from an alpaca immunised with the full-length Y complex, panned against Nup84; also called VHH8; nanobody VHH-SAN8; source: E. coli, purified (Ni Sepharose, tag cut with SEN-p protease, Superdex 75); not shown: 14xHis bdSUMO, N-terminal, cleaved
binding result [2]: binds | binding result [3]: binds

B3: VHH-SAN9 (VHH)
VHH: QVQLVESGGGSVQAGGSLRLSCAVSGGTLSTLAMGWFRQAPGQEREFVARIGWTNGDTGYADSVKGRFTISRDNVKNTVYLQMNNLKPEDTALYYCATRRPYGSTLYPPNTESAHDNWGQGTQVTVSS
notes: structure deposited as PDB 6X03 (the model is a nanobody without CDRs placed as a rigid body); Selected by phage display from an alpaca immunised with the full-length Y complex; also called VHH9; nanobody VHH-SAN9; source: E. coli, purified (Ni Sepharose, tag cut with SEN-p protease, Superdex 75); not shown: 14xHis bdSUMO, N-terminal, cleaved
binding result [4]: binds | binding result [5]: binds

B4: VHH-SAN5 (VHH)
VHH: QVQLVESGGGLVQAGGSLRLSCAASGSIGSLDAMAWYRRAPGKQRERVASISRYGTYYVDSVKGRFTISRDNAKNTVYLQMNSLKPEDTGVYYCKGVMEVGGVIDEYWGQGTQVTVSS
notes: structure deposited as PDB 6X04 (2.8 Å, nanobody chains); Selected by phage display from an alpaca immunised with the full-length Y complex, panned against Nup133NTD; also called nanobody VHH-SAN5; source: E. coli, purified (Ni Sepharose, tag cut with SEN-p protease, Superdex 75); not shown: 14xHis bdSUMO, N-terminal, cleaved
binding result [6]: binds
